Results from patent US20220403043A1 (YEDA RESEARCH AND DEVELOPMENT, published 2022).

Assays:
[1] = molecular target: T1, biotinylated human CD40 (Acrobiosystems) (human, UniProt P25942 21-193, biotinylated (site not stated)); assay: simultaneous binding ELISA (FIG. 4A-D)
T1 construct: also called huCD40
Protocol: (§1) All sequential steps were performed at room temperature. After being washed, the plates were blocked for 1 hr with 1×PBS with 2% Bovine serum Albumin and were subsequently incubated for 1 hr with serially diluted IgGs (1:5 consecutive dilutions in 1×PBS with 2% Bovine serum Albumin). For dual binding ELISA assay, plates were incubated for 1 hr with biotinylated human CD40 (Acrobiosystems). After washing, plates were incubated for 1 hr with horseradish peroxidase-conjugated anti-human IgG (Jackson ImmunoResearch) or with horseradish peroxidase-conjugated Streptavidin (Biolegend). Detection was performed using a one component substrate solution (TMB) and reactions stopped with the addition of 0.18 M sulphuric acid. Absorbance at 450 nm was immediately recorded using a SpectraMax Plus spectrophotometer (Molecular Devices), and background absorbance from negative control samples was subtracted.

[2] = molecular target: T2, recombinant human DEC-205 (Sino Biological), extracellular domain (human, UniProt O60449 28-1666); assay: simultaneous binding ELISA (FIG. 4A-D)
T2 construct: extracellular domain; Bought protein
Protocol: as §1

[3] = molecular target: T3, recombinant human CD40 (Sino Biological), extracellular domain (human, UniProt P25942 21-193); assay: ELISA titration on coated recombinant huCD40 (FIG. 4A)
T3 construct: also called huCD40; hCD40
Protocol: as §1

recombinant hFcγRIIB = molecular target: T4, recombinant hFcγRIIB (human, UniProt P31994 43-217, limits assumed); assay: ELISA on recombinant hFcγRIIB (FIG. 9B)
T4 construct: construct not described; also called human FcγRIIB
T4 sequence (looked up): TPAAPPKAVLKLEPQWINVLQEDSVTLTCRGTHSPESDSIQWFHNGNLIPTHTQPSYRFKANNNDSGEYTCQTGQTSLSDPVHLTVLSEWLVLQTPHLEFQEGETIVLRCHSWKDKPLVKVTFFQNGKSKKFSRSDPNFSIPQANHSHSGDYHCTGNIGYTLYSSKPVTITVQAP

[4] = molecular target: T2, recombinant human DEC-205 (Sino …); assay: ELISA titration on coated recombinant human DEC-205 (FIG. 4B)
Protocol: as §1

[5] = molecular target: T5, recombinant mouse CD11c (R&D Systems) (mouse, UniProt Q9QXH4 20-1116); assay: ELISA titration on coated recombinant mouse CD11c (FIG. 4B)
T5 construct: extracellular domain; Bought protein; also called recombinant CD11c
T5 sequence (looked up): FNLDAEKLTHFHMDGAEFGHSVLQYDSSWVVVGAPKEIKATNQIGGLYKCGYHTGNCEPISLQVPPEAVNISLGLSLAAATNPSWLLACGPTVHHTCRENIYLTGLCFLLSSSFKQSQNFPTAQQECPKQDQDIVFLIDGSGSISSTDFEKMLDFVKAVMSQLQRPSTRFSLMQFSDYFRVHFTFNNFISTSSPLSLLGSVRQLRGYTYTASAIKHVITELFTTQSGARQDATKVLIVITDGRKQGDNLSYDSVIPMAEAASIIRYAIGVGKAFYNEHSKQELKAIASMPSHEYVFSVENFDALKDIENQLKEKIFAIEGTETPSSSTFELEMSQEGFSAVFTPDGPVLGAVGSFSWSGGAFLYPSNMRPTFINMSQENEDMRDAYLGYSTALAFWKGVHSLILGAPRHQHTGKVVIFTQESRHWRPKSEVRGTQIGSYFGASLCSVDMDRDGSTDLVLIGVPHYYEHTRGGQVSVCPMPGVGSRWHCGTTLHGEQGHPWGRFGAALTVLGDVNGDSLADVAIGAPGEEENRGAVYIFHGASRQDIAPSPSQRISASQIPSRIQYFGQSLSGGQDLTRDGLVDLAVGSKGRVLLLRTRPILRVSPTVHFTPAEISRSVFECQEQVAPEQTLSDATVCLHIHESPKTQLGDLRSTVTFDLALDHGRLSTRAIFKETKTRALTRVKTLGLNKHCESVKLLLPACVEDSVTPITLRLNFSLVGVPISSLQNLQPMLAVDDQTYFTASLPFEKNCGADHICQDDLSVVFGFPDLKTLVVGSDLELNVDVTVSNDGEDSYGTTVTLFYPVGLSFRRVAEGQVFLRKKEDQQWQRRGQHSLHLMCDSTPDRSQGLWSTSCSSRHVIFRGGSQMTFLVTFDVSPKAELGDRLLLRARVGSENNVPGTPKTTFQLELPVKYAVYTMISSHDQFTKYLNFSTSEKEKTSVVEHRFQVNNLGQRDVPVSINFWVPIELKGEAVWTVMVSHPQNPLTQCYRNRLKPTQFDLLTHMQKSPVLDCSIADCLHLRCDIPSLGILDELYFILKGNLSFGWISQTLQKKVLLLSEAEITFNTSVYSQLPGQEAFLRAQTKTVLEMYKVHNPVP
Protocol: as §1

T2 sequence (O60449 28-1666): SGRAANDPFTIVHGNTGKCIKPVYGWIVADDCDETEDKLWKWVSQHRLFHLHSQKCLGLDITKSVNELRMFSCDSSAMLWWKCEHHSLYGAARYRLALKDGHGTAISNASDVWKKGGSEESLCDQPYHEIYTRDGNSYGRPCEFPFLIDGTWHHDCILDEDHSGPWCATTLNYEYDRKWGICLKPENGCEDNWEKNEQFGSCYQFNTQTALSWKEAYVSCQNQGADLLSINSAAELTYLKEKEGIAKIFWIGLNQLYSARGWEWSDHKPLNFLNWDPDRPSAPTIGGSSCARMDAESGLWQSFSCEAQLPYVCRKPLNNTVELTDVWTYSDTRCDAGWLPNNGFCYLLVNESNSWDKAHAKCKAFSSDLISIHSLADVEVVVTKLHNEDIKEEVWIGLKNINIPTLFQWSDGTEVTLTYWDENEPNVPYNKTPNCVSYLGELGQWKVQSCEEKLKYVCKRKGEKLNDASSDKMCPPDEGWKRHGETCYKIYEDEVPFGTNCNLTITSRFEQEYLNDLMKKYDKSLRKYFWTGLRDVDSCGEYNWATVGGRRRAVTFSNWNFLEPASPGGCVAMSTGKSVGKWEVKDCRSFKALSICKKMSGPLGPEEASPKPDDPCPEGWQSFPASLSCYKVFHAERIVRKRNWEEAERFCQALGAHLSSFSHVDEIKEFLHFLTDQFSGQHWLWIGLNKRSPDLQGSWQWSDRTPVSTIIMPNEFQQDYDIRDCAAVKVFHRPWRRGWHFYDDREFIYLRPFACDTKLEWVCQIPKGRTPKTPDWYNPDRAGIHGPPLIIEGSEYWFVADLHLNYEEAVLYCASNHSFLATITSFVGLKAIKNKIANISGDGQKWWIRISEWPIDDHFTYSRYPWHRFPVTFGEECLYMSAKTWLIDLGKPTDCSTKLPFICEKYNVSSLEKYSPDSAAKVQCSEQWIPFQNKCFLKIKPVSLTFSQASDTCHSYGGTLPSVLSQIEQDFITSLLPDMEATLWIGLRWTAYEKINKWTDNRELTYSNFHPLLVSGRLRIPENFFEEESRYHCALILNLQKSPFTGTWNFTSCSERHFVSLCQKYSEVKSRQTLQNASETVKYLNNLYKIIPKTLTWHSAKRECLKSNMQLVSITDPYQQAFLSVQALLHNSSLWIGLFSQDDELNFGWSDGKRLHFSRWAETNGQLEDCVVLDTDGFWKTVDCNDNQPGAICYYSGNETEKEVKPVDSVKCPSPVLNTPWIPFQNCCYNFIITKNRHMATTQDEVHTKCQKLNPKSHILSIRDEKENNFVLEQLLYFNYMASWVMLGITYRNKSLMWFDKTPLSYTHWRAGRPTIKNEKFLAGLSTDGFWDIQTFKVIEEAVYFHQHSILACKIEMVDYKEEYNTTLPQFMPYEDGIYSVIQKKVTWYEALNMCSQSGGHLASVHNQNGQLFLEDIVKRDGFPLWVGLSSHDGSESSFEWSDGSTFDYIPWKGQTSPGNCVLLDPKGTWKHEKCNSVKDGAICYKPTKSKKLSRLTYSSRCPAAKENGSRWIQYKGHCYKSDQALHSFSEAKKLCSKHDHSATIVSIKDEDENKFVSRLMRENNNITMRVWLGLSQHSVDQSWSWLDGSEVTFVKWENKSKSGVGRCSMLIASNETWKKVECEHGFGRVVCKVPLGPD
T1 sequence (P25942 21-193 limits assumed): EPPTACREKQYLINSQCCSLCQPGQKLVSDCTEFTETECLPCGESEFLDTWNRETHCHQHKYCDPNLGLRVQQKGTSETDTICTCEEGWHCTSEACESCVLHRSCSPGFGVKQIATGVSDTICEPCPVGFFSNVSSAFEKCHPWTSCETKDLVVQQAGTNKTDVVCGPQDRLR
T3 sequence (P25942 21-193 limits assumed): as above

B1: anti-CD40/DEC-205 bispecific Ab (2141/HD-109) (bispecific antibody)
VH 1: not shown
VL 1: DIQMTQSPSSVSASVGDRVTITCRASQGIYSWLAWYQQKPGKAPNLLIYTASTLQSGVPSRFSGSGSGTDFTLTISSLQPEDFATYYCQQANIFPLTFGGGTKVEIKRTVAAPSVFIFPPSDEQLKSGTASVVCLLNNFYPREAKVQWKVDNALQSGNSQESVTEQDSKDSTYSLSSTLTLSKADYEKHKVYACEVTHQGLSSPVTKSFNRGEC
VH 2: QVQLTESGPGLVAPSQSLSITCSVSGFSLTNYAINWVRQPPGKGLEWLGIIWTGGGTNYNSTLKSRLSISKDNSKSQVFLKMNSLQTDDTARYYCARVSHDYFYGSSPYYYGMDYWGQGTSVTVSS
VL 2: DIQMNQSPSSLSASLGDTITITCHASQNINVWLSWYQQKPGNIPKLLIYKVSNLHTGVPSRFSGSGSGTGFTLTISSLQPEDIATYYCQQGQSYPWTFGGGTKLEIK
notes: Whole human IgG1 bispecific of four chains; Knobs-into-holes: Y349C/T366S/L368A/Y407V on the anti-DC arm and S354C/T366W on the anti-CD40 arm; One arm is in CrossMab CH1-CL format
binding result [1]: binds | binding result [2]: binds | binding result [3]: binds

B2: CD40/CD11c-V11 (bispecific antibody, human IgG1)
heavy 1: not shown
light 1: B1 VL 1
heavy 2: EVQLVEKGGGLVQPGKSLKLSCAASGFTFSEYWMNWVRQAPGKGLEWVGVIKYKYSNYATEYAESVKGRFTISRDDSKSSVYLQMNNLRAEDTAIYYCARTWENWYFDFWGQGTQVTVSSASVAAPSVFIFPPSDEQLKSGTASVVCLLNNFYPREAKVQWKVDNALQSGNSQESVTEQDSKDSTYSLSSTLTLSKADYEKHKVYACEVTHQGLSSPVTKSFNRGECDRSEPKSCDKTHTCPPCPAPELLGDDSVFLFPPKPKDTLMISRTPEVTCVVVDVSDEDGEVKFNWYVDGVEVHNAKTKPREEQYNSTYRVVSVLTVLHQDWLNGKEYKCKVSNKALPRPIEKTISKAKGQPREPQVCTLPPSREEMTKNQVSLSCAVKGFYPSDIAVEWESNGQPENNYKTTPPVLDSDGSFFLVSKLTVDKSRWQQGNVFSCSVMHEALHNHYTQKSLSLSPGKSAWSHPQFEK
light 2: DIQMTQSPSSLPASLGDRVTIHCQASQDISNYLTWYQQKPGKAPKLLIYETNKLADGVPSRFSGSGSGRDYSFTISSLESEDVGSYYCQHYYDYPRTFGPGTKLDLKSSASTKGPSVFPLAPSSKSTSGGTAALGCLVKDYFPEPVTVSWNSGALTSGVHTFPAVLQSSGLYSLSSVVTVPSSSLGTQTYICNVNHKPSNTKVDKKVEPKSC
notes: Human IgG1 Fc with V11 (G237D/P238D/H268D/P271G/A330R); also called anti-CD40/CD11c bsAb hIgG1-V11; IgG1-V11; copies: 1 + 1 + 1 + 1
binding result (recombinant hFcγRIIB): binds

B3: CD40/DEC-205-V11 (bispecific antibody, human IgG1)
heavy 1: not shown
light 1: B1 VL 1
heavy 2: QVQLTESGPGLVAPSQSLSITCSVSGFSLTNYAINWVRQPPGKGLEWLGIIWTGGGTNYNSTLKSRLSISKDNSKSQVFLKMNSLQTDDTARYYCARVSHDYFYGSSPYYYGMDYWGQGTSVTVSSASVAAPSVFIFPPSDEQLKSGTASVVCLLNNFYPREAKVQWKVDNALQSGNSQESVTEQDSKDSTYSLSSTLTLSKADYEKHKVYACEVTHQGLSSPVTKSFNRGECDRSEPKSCDKTHTCPPCPAPELLGDDSVFLFPPKPKDTLMISRTPEVTCVVVDVSDEDGEVKFNWYVDGVEVHNAKTKPREEQYNSTYRVVSVLTVLHQDWLNGKEYKCKVSNKALPRPIEKTISKAKGQPREPQVCTLPPSREEMTKNQVSLSCAVKGFYPSDIAVEWESNGQPENNYKTTPPVLDSDGSFFLVSKLTVDKSRWQQGNVFSCSVMHEALHNHYTQKSLSLSPGKSAWSHPQFEK
light 2: DIQMNQSPSSLSASLGDTITITCHASQNINVWLSWYQQKPGNIPKLLIYKVSNLHTGVPSRFSGSGSGTGFTLTISSLQPEDIATYYCQQGQSYPWTFGGGTKLEIKSSASTKGPSVFPLAPSSKSTSGGTAALGCLVKDYFPEPVTVSWNSGALTSGVHTFPAVLQSSGLYSLSSVVTVPSSSLGTQTYICNVNHKPSNTKVDKKVEPKSC
notes: Human IgG1 Fc with V11 (G237D/P238D/H268D/P271G/A330R); also called IgG1-V11; copies: 1 + 1 + 1 + 1
binding result (recombinant hFcγRIIB): binds

B4: anti-DEC-205 (HD109) monospecific Ab (antibody, V domains shown)
VH: B1 VH 2
VL: B1 VL 2
binding result [4]: binds

B5: anti-CD40 (2141) monospecific Ab (antibody, V domains shown)
VH: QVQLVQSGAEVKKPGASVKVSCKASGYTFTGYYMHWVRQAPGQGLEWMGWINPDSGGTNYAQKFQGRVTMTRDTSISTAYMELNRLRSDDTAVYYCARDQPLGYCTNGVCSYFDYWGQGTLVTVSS
VL: DIQMTQSPSSVSASVGDRVTITCRASQGIYSWLAWYQQKPGKAPNLLIYTASTLQSGVPSRFSGSGSGTDFTLTISSLQPEDFATYYCQQANIFPLTFGGGTKVEIKR
notes: 2141 variable regions cloned on human IgG1 / human kappa backbones; also called clone 21.4.1; CD40 mAb
binding result [5]: no binding | binding result [4]: no binding
